Measured values: paper PMC9092175

Assays:
[1] = target: plant virus-based immunosorbent nanoparticle (VIN): assembled turnip vein clearing virus (TVCV) virion of coat protein Fc-affinity ligand fusion (CP-FcAL) (turnip vein clearing virus | S. aureus) (UniProt Q88922); experiment: co-sedimentation; affinity sedimentation: purified VIN mixed in free suspension with a pre-purified target; VIN-target complex pelleted (12,000 x g, 10 min for hIgG; 20,000 x g, 20 min for the Fc-fusions); eluted with 0.1 M glycine-HCl pH 2.5; SDS-PAGE and Western blot
[2] = target: plant virus-based immunosorbent nanoparticle (VIN): assembled turnip vein clearing virus (TVCV) virion of coat protein Fc-affinity ligand fusion (CP-FcAL) (turnip vein clearing virus | S. aureus) (UniProt Q88922); experiment: pull-down; magnetic separation: VIN covalently coupled to superparamagnetic particles (VIN-MP), hIgG in PBS; eluted with 0.2 M glycine buffer pH 2.5

## human immunoglobulin G (hIgG) (antibody)
[1]
  recovery of the feed hIgG: 95%
[2]
  binding capacity per mass of magnetic particle (µg hIgG/mg MP): > 1000
  hIgG binding/elution load per mass of VIN (mg hIgG/mg VIN): 0.3
  hIgG elution recovery per mass of VIN, VIN-MP relative to uncoupled VIN: 35 to 55%
  recovery of the feed hIgG: 42%
